Experiments:
[1] = biological target: T1, PKC-βII (purified isoform) (Homo sapiens (Human), UniProt P05771 2-621); assay: summary grade, purified isoform ELISA
T1 construct: also called PKC-beta II

PKC-δ (purified isoform) [2] = biological target: T2, PKC-δ (purified isoform) (Homo sapiens (Human), UniProt Q05655 1-676); assay: competitive ELISA on purified PKC-δ vs anti-PKC-δ Ab; PRE 50 µM
T2 construct: also called PKC-delta; PKCdelta
Experimental: (§1) Greiner 96 well ELISA plates were coated with the appropriate PKC isoform diluted in PBSN (PBS with Calcium/Magnesium+0.05% Sodium azide w/w). 50 μL/well at 250 ng/mL was used. Control wells contained PBSN only. Plates were incubated overnight at 4° C.
(§2) The plates were washed 3 times with 200 μL of dH₂O per well, then 100 μL of blocking solution was added per well and the plate incubated for 1 h at 37° C. The washing steps with dH₂O were repeated and 50 μL of the appropriate PRE solution (PRE stock solution [20 mM in DMSO] diluted in PBSN) was added and the plate incubated for 1 h at room temperature.
(§3) 50 μL of 1:1000 dilution of Alkaline Phosphatase (AP) conjugated antibody (anti-rabbit for all except zeta, which was anti-goat) was then added and the plate incubated for 1 h at room temperature. Washing with dH₂O was then repeated. Finally, 100 μL of pNPP solution in pNPP buffer (2 mM MgCl₂, 100 mM Sodium bicarbonate in water, pH 9.8) was added to all wells and incubated for 8 minutes for α, βI, βII ε, and ζ, or for 15-20 mins for […] (until sufficient coloration is observed). The reaction was stopped by addition of Stop solution (2N NaOH) and the absorbance at 405 nm was read on a Galaxy Plate reader.

PKC-δ (purified isoform) [3] = biological target: T2, PKC-δ (purified isoform); assay: competitive ELISA on purified PKC-δ vs anti-PKC-δ Ab; PRE 100 µM
Experimental: as §1, §2, §3

PKC-δ (purified isoform) [4] = biological target: T2, PKC-δ (purified isoform); assay: competitive ELISA on purified PKC-δ vs anti-PKC-δ Ab; PRE 200 µM
Experimental: as §1, §2, §3

[5] = biological target: T3, PKC-βI (purified isoform) (Homo sapiens (Human), UniProt P05771 2-671); assay: competitive ELISA on purified PKC-βI vs anti-PKC-βI Ab; PRE 50 µM
T3 construct: also called PKC-beta I
T3 sequence (P05771 2-671 limits assumed): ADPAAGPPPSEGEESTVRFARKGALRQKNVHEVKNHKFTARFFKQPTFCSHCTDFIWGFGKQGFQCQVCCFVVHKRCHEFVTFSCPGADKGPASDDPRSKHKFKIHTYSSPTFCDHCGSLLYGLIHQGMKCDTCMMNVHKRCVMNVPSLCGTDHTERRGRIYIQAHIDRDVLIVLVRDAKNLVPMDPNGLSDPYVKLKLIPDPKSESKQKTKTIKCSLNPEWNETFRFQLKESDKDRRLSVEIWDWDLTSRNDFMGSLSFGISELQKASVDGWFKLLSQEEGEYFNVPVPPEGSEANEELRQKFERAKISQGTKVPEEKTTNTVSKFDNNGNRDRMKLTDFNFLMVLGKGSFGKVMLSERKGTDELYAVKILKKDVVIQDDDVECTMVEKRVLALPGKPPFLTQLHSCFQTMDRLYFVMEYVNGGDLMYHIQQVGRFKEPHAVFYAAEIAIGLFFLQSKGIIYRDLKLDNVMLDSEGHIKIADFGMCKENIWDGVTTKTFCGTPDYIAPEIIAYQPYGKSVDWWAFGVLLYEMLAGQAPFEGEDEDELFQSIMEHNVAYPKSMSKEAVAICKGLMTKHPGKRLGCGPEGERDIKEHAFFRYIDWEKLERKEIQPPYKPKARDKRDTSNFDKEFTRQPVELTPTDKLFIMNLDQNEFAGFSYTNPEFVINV
Experimental: as §1, §2, §3

[6] = biological target: T3, PKC-βI (purified isoform); assay: competitive ELISA on purified PKC-βI vs anti-PKC-βI Ab; PRE 100 µM
Experimental: as §1, §2, §3

[7] = biological target: T3, PKC-βI (purified isoform); assay: competitive ELISA on purified PKC-βI vs anti-PKC-βI Ab; PRE 200 µM
Experimental: as §1, §2, §3

[8] = biological target: T1, PKC-βII (purified isoform); assay: competitive ELISA on purified PKC-βII vs anti-PKC-βII Ab; PRE 50 µM
Experimental: as §1, §2, §3

[9] = biological target: T1, PKC-βII (purified isoform); assay: competitive ELISA on purified PKC-βII vs anti-PKC-βII Ab; PRE 100 µM
Experimental: as §1, §2, §3

[10] = biological target: T1, PKC-βII (purified isoform); assay: competitive ELISA on purified PKC-βII vs anti-PKC-βII Ab; PRE 200 µM
Experimental: as §1, §2, §3

[11] = biological target: T4, PKC-ι (endogenous, human cell extracts) (human, UniProt P41743 2-596); assay: Western-blot competition on cell extracts against the anti-PKC-ι primary antibody; band densitometry
T4 construct: also called PKC-iota
T4 sequence (looked up): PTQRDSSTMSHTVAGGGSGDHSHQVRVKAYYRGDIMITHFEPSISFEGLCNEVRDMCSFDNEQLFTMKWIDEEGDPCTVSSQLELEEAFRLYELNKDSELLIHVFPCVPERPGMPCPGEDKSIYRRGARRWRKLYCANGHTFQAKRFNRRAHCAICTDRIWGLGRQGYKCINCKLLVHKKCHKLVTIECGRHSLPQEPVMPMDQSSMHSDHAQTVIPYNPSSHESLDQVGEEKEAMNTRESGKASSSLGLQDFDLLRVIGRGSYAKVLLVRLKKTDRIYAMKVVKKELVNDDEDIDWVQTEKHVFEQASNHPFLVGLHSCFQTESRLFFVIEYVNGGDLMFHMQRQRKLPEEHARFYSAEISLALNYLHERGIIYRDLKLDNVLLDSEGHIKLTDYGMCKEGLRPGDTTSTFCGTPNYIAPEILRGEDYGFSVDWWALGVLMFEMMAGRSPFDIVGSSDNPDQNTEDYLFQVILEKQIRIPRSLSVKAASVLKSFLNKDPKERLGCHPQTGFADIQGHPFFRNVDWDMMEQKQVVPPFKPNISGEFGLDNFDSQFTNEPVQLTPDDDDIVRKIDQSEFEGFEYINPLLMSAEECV
Experimental: Binding efficiency and specificity of the peptides PRE 2, 3, 4, 5, 6, 7, 8, 9, 10, 11, 12 and 13 (see Table 3) was also tested using cytoplasmic extracts from different cell lines expressing appropriate PKC isoforms as described for Example 1. Briefly, the protein cytoplasmic extracts were separated by electrophoresis and transferred onto nitrocellulose membranes by standard Western blotting procedures. The bands on the Western blots were detected with matching primary antibodies and alkaline phosphatase conjugated secondary antibody. The bands were then scanned and the relative density measurements obtained.
This procedure to assess the binding characteristics of the PREs is based on competition binding of the PRE with the primary anti-isoform PKC specific antibodies. The lower the measured band density, the greater the binding of the PRE to the PKC isoform. The PREs were added at 10 and 20 times (10×, 20×) the primary antibody concentration, according to classical competition between antigenic peptide and primary antibody. The following cell lines (obtained from the ATCC) were used: H661—NCI human lung carcinoma NSCLC; MDAMB231—human highly invasive breast cancer cell line from pleural effusion; LS180—human colon adenocarcinoma; LnCAP—human prostate adenocarcinoma; CCD16Lu—human lung fibroblasts; Du145—human prostate carcinoma brain metastasis, and T24—human bladder carcinoma.

[12] = biological target: T5, PKC-α (endogenous, human cell lysates and cells) (human, UniProt P17252 2-672); assay: anti-PKC-α immunofluorescence, V5E-transfected IMR-32 cells loaded with PRE (label on PKC-α and V5E); control with endocytosis reagent 113
T5 construct: Endogenous protein of human cell lysates, on Western blot membranes (denatured) or in fixed cells; also called PKC-alpha; PKC-A
Description: Neuroblastoma cells from the IMR-32 cell line were stably transfected with a vector containing the V5E sequence of PKC-α as outlined above in Example 13. The V5E sequence is part of the antigenic amino acid sequence that is used to raise the commercially available anti-PKC-α isoform-specific antibody.
The peptides PRE 1, 2, 3, 4, 5, 6, 7, 8, 9, 10, 11, 12 and 13 (see Table 3) were incorporated into the transfected IMR-32 cells via pinocytic endocytosis (Molecular Probes) according to the supplier's recommendations. Following fixation and permeabilization, PKC-α was detected using an Alexa fluor secondary antibody (as described above in Example 8).

T1 sequence (P05771 other isoform, or with tags, fused parts or gaps limits assumed): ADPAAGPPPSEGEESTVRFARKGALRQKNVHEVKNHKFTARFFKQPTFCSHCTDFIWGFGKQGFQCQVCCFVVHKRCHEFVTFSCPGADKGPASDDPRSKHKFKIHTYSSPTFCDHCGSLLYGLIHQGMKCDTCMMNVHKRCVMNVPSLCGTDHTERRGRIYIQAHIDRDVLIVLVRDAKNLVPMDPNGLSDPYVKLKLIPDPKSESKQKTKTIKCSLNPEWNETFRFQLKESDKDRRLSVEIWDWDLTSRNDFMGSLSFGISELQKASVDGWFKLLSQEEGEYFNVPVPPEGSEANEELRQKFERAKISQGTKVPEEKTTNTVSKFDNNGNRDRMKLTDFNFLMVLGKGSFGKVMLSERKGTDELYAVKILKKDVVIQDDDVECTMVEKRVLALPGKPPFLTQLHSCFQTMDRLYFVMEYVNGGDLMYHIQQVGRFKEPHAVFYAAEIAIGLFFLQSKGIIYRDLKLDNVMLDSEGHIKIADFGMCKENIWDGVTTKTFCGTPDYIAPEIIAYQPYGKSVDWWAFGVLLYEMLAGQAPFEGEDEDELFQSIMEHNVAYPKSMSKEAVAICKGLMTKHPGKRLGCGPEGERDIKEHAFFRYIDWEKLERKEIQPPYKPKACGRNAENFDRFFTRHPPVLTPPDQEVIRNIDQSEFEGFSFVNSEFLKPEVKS
T2 sequence (Q05655 whole entry, stated change not applied, canonical isoform): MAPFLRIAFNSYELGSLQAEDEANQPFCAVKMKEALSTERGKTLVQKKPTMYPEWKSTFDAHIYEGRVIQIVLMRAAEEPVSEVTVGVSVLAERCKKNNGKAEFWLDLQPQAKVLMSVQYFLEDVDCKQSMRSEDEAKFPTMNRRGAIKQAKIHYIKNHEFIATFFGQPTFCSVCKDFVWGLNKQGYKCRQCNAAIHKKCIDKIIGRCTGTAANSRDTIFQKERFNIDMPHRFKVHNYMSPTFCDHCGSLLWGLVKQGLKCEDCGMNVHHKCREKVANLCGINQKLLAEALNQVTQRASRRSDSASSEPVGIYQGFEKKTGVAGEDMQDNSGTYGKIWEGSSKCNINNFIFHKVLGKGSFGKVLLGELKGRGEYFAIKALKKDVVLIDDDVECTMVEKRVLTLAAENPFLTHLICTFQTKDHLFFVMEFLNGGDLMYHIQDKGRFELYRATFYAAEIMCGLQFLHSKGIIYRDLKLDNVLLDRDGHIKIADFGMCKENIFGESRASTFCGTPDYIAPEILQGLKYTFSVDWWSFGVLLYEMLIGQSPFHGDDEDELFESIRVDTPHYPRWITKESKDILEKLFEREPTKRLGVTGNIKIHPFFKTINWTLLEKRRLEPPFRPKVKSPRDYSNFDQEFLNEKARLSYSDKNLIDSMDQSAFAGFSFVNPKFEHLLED

binding result [1]: no binding (tested: 200 µM)
binding capacity (%) (PKC-δ (purified isoform) [2]): 35.7%
binding capacity (%) (PKC-δ (purified isoform) [3]): 45.2%
binding capacity (%) (PKC-δ (purified isoform) [4]): 49.4%
binding capacity (%) [5]: 19.8%
binding capacity (%) [6]: 13.9%
binding capacity (%) [7]: 13.4%
binding capacity (%) [8]: 0%
binding capacity (%) [9]: 0%
binding capacity (%) [10]: 0%
Relative Fluorescence Intensity [12]: 79
B1: PRE 1 (peptide)
peptide: RRKKGGKDFVVKR
notes: Synthetic peptide, solid phase synthesis; termini given free; also called peptide PRE 1
binding result [11]: no binding (tested: 20X the primary antibody concentration)

— patent US20100041597A1 (published 2010)
